± gives the uncertainty stated by the source.
B1: Transcriptional regulator ERG, residues 117 to 197; numbered along this chain, P11308 (parent)
chain: NMTTNERRVIVPADPTLWSTDHVRQWLEWAVKEYGLPDVNILLFQNIDGKELCKMTKDDFQRLTPSYNADILLSHLHYLRE
B2: Ras GTPase-activating protein 1, residues 281 to 341; numbered along this chain, P20936 (parent)
chain: RRRVRAILPYTKVPDTDEISFLKGDMFIVHNELEDGWMWVTNLRTDEQGLIVEDLVEEVGR

Variants of: B1
Test: abundance fitness (aPCA) (normalised: wild type 0, dead -1); higher = more abundant; growth selection in yeast, the domain comes from the species named
Conditions: Homo sapiens

Abundance fitness of substitutions, site by site:
Y67: P 0.036 ± 0.09 | H 0.033 ± 0.15 | A 0.016 ± 0.063 | N 0.138 ± 0.12 | S 0.075 ± 0.07 | V 0.019 ± 0.062 | D 0.199 ± 0.096 | L -0.03 ± 0.072 | E 0.037 ± 0.072 | Q 0.079 ± 0.12 | I -0.16 ± 0.19 | G 0.078 ± 0.042 | M -0.14 ± 0.1 | K -0.097 ± 0.1 | C 0.127 ± 0.098 | T 0.113 ± 0.072 | F -0.242 ± 0.15
A69: G -0.124 ± 0.054 | P -0.124 ± 0.14 | L -0.658 ± 0.17 | T -0.219 ± 0.14 | W -0.203 ± 0.14 | Q -0.564 ± 0.49 | R -0.748 ± 0.12 | S -0.352 ± 0.23 | K -0.445 ± 0.17 | V -0.039 ± 0.057 | M -0.186 ± 0.11
L73: V -0.028 ± 0.057 | P -0.634 ± 0.2 | K -0.292 ± 0.093 | M 0.015 ± 0.074 | W -0.028 ± 0.056 | S -0.063 ± 0.061 | T -0.016 ± 0.059 | D -0.156 ± 0.12 | A 0.023 ± 0.052 | C 0.075 ± 0.092 | Q -0.144 ± 0.093 | I -0.034 ± 0.16 | G -0.183 ± 0.047 | E -0.293 ± 0.081 | R -0.039 ± 0.043 | Y -0.054 ± 0.17 | H -0.061 ± 0.091 | N -0.201 ± 0.16
N68: V 0.008 ± 0.046 | R -0.275 ± 0.045 | I -0.079 ± 0.12 | L -0.48 ± 0.081 | K -0.266 ± 0.08 | S 0.011 ± 0.054 | Q 0.085 ± 0.066 | D 0.021 ± 0.092 | E 0.085 ± 0.049 | C -0.212 ± 0.1 | M -0.155 ± 0.08 | P 0.017 ± 0.064 | A 0.013 ± 0.047 | F -0.468 ± 0.19
P65: A 0.025 ± 0.052 | W -0.109 ± 0.077 | F 0.342 ± 0.29 | Y 0.109 ± 0.28 | T 0.02 ± 0.093 | E -0.088 ± 0.057 | G -0.004 ± 0.036 | N -0.271 ± 0.25 | C 0.051 ± 0.087 | H 0.135 ± 0.22 | D 0.07 ± 0.089 | Q -0.265 ± 0.12 | I -0.449 ± 0.27 | S 0.044 ± 0.076 | L -0.146 ± 0.11 | K -0.107 ± 0.09 | R -0.017 ± 0.046 | M 0.048 ± 0.077
H77: K 0.044 ± 0.1 | V -0.072 ± 0.065 | L -0.087 ± 0.067 | S -0.026 ± 0.073 | T -0.119 ± 0.11 | Q -0.098 ± 0.1 | A 0.034 ± 0.065 | E 0.099 ± 0.079 | I 0.142 ± 0.18 | R 0.052 ± 0.05 | Y -0.295 ± 0.18 | M -0.24 ± 0.1 | D -0.128 ± 0.11 | W -0.166 ± 0.11 | N 0.112 ± 0.1 | F -0.226 ± 0.16 | G 0.194 ± 0.061
T64: E -0.175 ± 0.06 | N 0.02 ± 0.12 | S -0.155 ± 0.048 | G -0.141 ± 0.039 | W -0.091 ± 0.052 | Q -0.135 ± 0.069 | I -0.345 ± 0.12 | V -0.028 ± 0.042 | K -0.576 ± 0.12 | M 0.011 ± 0.056 | F 0.025 ± 0.15
L79: D -0.106 ± 0.12 | H -0.076 ± 0.12 | R -0.002 ± 0.056 | Q -0.007 ± 0.087 | I 0.061 ± 0.11 | K -0.014 ± 0.092 | S -0.141 ± 0.071 | G -0.195 ± 0.052 | C 0.114 ± 0.091 | Y -0.454 ± 0.18 | M 0.179 ± 0.098 | N -0.259 ± 0.23 | F -0.215 ± 0.11 | E -0.054 ± 0.086 | V 0.046 ± 0.05 | P -0.19 ± 0.1 | T 0.021 ± 0.094
H75: V -0.62 ± 0.13 | T -0.646 ± 0.23 | G -0.156 ± 0.052 | F -0.511 ± 0.16 | D 0.119 ± 0.095 | L -0.316 ± 0.11 | P -0.561 ± 0.33 | Y -0.113 ± 0.12 | N 0.099 ± 0.13 | M -1.02 ± 0.34 | A -0.01 ± 0.07 | Q 0.038 ± 0.11 | I -0.215 ± 0.21 | R 0.121 ± 0.05 | W -1 ± 0.3 | E -0.163 ± 0.099
Y78: S 0.148 ± 0.056 | M 0.163 ± 0.078 | D 0.228 ± 0.081 | F -0.087 ± 0.13 | Q 0.2 ± 0.088 | L 0.12 ± 0.051 | V 0.071 ± 0.065 | K 0.103 ± 0.085 | N 0.305 ± 0.094 | E 0.247 ± 0.059 | G 0.203 ± 0.044 | T 0.173 ± 0.087 | P -0.033 ± 0.08 | H -0.119 ± 0.13 | W -0.22 ± 0.087 | I 0.034 ± 0.089 | C 0.029 ± 0.13 | A 0.181 ± 0.053
I71: S -0.148 ± 0.056 | Y -0.266 ± 0.14 | P 0.06 ± 0.084 | D -0.359 ± 0.089 | T 0.05 ± 0.074 | G -0.174 ± 0.037 | V 0.059 ± 0.041 | K 0.074 ± 0.064 | E -0.151 ± 0.053 | A 0.036 ± 0.042 | N -0.624 ± 0.23 | W -0.282 ± 0.064 | R 0.113 ± 0.036 | M 0.065 ± 0.077 | H 0.001 ± 0.091 | Q 0.03 ± 0.055 | F -0.272 ± 0.11
D70: M -0.237 ± 0.084 | L -0.24 ± 0.053 | H -0.011 ± 0.15 | S -0.1 ± 0.056 | F -0.448 ± 0.25 | Q -0.042 ± 0.062 | R -0.036 ± 0.038 | N -0.143 ± 0.1 | E 0.07 ± 0.049 | T -0.157 ± 0.078 | W -0.42 ± 0.076 | G -0.05 ± 0.038 | A -0.169 ± 0.058 | Y -0.293 ± 0.18 | K -0.097 ± 0.081 | P -0.316 ± 0.13 | V -0.176 ± 0.056
E81: F -0.339 ± 0.19 | M -0.301 ± 0.17 | Y -0.058 ± 0.21 | G 0.138 ± 0.057 | L 0.076 ± 0.14 | H 0.108 ± 0.18 | Q 0.016 ± 0.14 | W -0.32 ± 0.086 | D 0.102 ± 0.14 | I -0.152 ± 0.24 | V -0.155 ± 0.088 | A -0.03 ± 0.089 | P -0.107 ± 0.15 | C -0.05 ± 0.092 | N 0.557 ± 0.38
S74: D -0.064 ± 0.083 | L -0.217 ± 0.095 | V -0.138 ± 0.066 | G 0.026 ± 0.039 | H 0.246 ± 0.14 | T 0.078 ± 0.08 | N 0.032 ± 0.15 | P -0.352 ± 0.12 | Y -0.018 ± 0.12 | C -0.115 ± 0.085 | I -0.342 ± 0.17 | F -0.379 ± 0.13 | Q -0.073 ± 0.1 | W -0.603 ± 0.15 | R 0.006 ± 0.043 | M -0.124 ± 0.095
L76: M -0.262 ± 0.13 | S -0.576 ± 0.19 | V -0.105 ± 0.067 | A -0.342 ± 0.14 | C -0.151 ± 0.1 | P -0.923 ± 0.3 | Q -0.928 ± 0.41 | N -0.794 ± 0.33 | W -0.411 ± 0.12 | E -0.742 ± 0.27 | K -0.519 ± 0.2 | H -0.237 ± 0.25 | G -0.802 ± 0.12 | Y -0.663 ± 0.38 | R -0.944 ± 0.15 | I 0.05 ± 0.32
L72: S -0.801 ± 0.13 | E -0.719 ± 0.11 | N -1.02 ± 0.49 | W -0.653 ± 0.087 | K -0.952 ± 0.27 | V -0.471 ± 0.11 | Q -0.697 ± 0.18 | A -0.821 ± 0.11 | G -0.953 ± 0.086 | I -0.199 ± 0.34 | C -0.726 ± 0.13 | T -0.543 ± 0.12 | D -0.97 ± 0.33 | R -0.714 ± 0.077 | Y -0.669 ± 0.18 | P -0.649 ± 0.26 | H -0.909 ± 0.45
S66: N 0.11 ± 0.13 | C -0.005 ± 0.14 | F -0.039 ± 0.11 | W -0.28 ± 0.076 | I -0.178 ± 0.11 | V -0.117 ± 0.061 | D -0.185 ± 0.12 | E 0.03 ± 0.069 | T -0.12 ± 0.098 | K -0.056 ± 0.071 | L -0.239 ± 0.062 | A 0.058 ± 0.063 | M -0.295 ± 0.098 | P 0.03 ± 0.1 | H -0.107 ± 0.13 | R -0.057 ± 0.054 | Q -0.012 ± 0.075 | G -0.025 ± 0.047
R80: H 0.068 ± 0.47 | C 0.178 ± 0.088 | A 0.021 ± 0.061 | P -0.01 ± 0.083 | F 0.003 ± 0.089 | Q 0.071 ± 0.11 | G -0.152 ± 0.054 | N 0.193 ± 0.17 | Y -0.466 ± 0.24 | V -0.046 ± 0.055 | K -0.004 ± 0.1 | E -0.166 ± 0.15 | S -0.109 ± 0.064 | M 0.038 ± 0.08

Variants of: B2
Test: as above
Conditions: Homo sapiens

Abundance fitness: each site, then its substitutions
R3: H -0.096 ± 0.032 | L -0.09 ± 0.028 | G -0.383 ± 0.028 | M -0.158 ± 0.057 | A -0.292 ± 0.035 | F 0.004 ± 0.032 | K -0.01 ± 0.064 | Q -0.066 ± 0.06 | D -0.514 ± 0.037 | P -0.51 ± 0.04 | C -0.212 ± 0.029 | N -0.126 ± 0.032 | I -0.073 ± 0.031
R1: I 0.072 ± 0.034 | Y 0.018 ± 0.042 | N 0.063 ± 0.037 | L -0.067 ± 0.056 | F 0.06 ± 0.058 | A -0.129 ± 0.047 | M 0.087 ± 0.074 | P -0.283 ± 0.13 | W -0.315 ± 0.059 | T 0.029 ± 0.04 | Q -0.503 ± 0.39 | K 0.058 ± 0.11 | D 0.122 ± 0.053 | C -0.065 ± 0.031 | V -0.016 ± 0.038 | G -0.098 ± 0.047
R2: M -0.053 ± 0.055 | P -0.189 ± 0.044 | I -0.159 ± 0.027 | D -0.179 ± 0.034 | Q -0.172 ± 0.065 | F -0.196 ± 0.032 | V -0.232 ± 0.031 | H -0.183 ± 0.038 | G -0.241 ± 0.028 | N -0.099 ± 0.028 | T -0.128 ± 0.032 | C -0.347 ± 0.03 | W -0.371 ± 0.055 | L -0.187 ± 0.031 | Y -0.103 ± 0.034 | S -0.164 ± 0.024 | E 0.007 ± 0.084 | K 0.027 ± 0.08

From the Human Domainome abundance scans (Beltran et al. 2025)
